Laboratory results from patent US20140271660A1 (Bayer, published 2014).

Biological target: T1, human antithrombin β complexed with heparin (ATβH) (human, UniProt P01008 33-464, lacks glycosylation at Asn135 (β glyco-isoform); complexed with heparin; biotinylated on surface lysines for panning and ELISA)
T1 construct: mature; heparin is not a protein; also called human ATβH; hATβH
Assay: panning and screening of a human antibody library against human ATβ in complex with heparin
Source text: A four-arm panning strategy was designed to discover Fabs specifically against ATβH from a human Fab library (Dyax Fab310). The library was first depleted with biotinylated heparin/Fondaparinux-bound ATα and biotinylated ATα and then was panned against heparin/Fondaparinux-bound ATβ and biotinylated ATβ on streptavidin beads, respectively. For each round of panning, the heparin-bound ATα (ATαH) was included in the binding buffer as a competitor. To keep hATβ in active conformation (heparin bound form), heparin was added to the wash buffer in all three rounds of panning. After panning, pooled clones were screened for hATβ and hATβH specific binding and counter-screened for hATα by ELISA. These clones were also examined for differential binding to rabbit ATβ over rabbit ATα. […] Positive hits (Fabs) were reformatted into IgG1, expressed in HEK293 cells and purified by protein-A column. These purified IgG1s were extensively tested in AT-depleted human plasma and hemA patient plasma for TGA assay (Thrombin Generation Assay) and dPT (diluted Prothrombin Time) assay to measure the clotting time.

T1 sequence (P01008 33-464, one chain of several): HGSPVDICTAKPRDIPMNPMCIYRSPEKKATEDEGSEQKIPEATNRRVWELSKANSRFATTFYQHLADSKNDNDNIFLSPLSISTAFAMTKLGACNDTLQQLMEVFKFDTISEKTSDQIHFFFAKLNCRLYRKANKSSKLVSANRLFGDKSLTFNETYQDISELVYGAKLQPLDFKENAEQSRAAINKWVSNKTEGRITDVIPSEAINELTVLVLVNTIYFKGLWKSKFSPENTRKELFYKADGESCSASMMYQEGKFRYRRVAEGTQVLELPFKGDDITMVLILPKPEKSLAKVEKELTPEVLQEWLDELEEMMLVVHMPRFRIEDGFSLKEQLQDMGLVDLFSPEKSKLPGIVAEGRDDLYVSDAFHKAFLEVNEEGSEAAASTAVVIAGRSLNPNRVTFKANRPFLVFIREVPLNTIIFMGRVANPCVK

B1: TPP2009 hIgG1 (antibody, V domains shown)
VH: EVQLLESGGGLVQPGGSLRLSCAASGFTFSAYRMGWVRQAPGKGLEWVSRIYSSGGRTRYADSVKGRFTISRDNSKNTLYLQMNSLRAEDTAVYYCAREKASDLSGSFSEALDYWGQGTLVTVSS
VL: AQSVLTQDPAVSVALGQTVRITCQGDSLRSYYASWYQQKPGQAPVLVIYGKNNRPSGIPDRFSGSSSGNTASLTITGAQAEDEADYYCNSRDSSGNHLVFGGGTKLTVLG
  binding result: binds
